Paper PMC10651130

Molecular target: RapR-LIMK1-Flag (LIMK1 T508D with iFKBP inserted in place of E360, flanked by GPG linkers) (UniProt P53667)
Assay: co-IP

Substance: TrkB-EGFP (tropomyosin receptor kinase B, EGFP-tagged) (from UniProt Q16620 32-822)
- normalized binding to TrkB (500 nM rapamycin): 98.6%
